Data on 69 sequences can be found in the domain aggregation screens of Martell et al. (2025).

A short description of the series: soluble fraction after stress (log2 fold change); higher = more stays soluble; pooled small domains, quantitative proteomics. Conditions: stress: pH 4. The method in brief:
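Small protein domains from pooled custom libraries were exposed to pH 4, then quantified with high-throughput quantitative proteomics. The fold change in how much of each domain remains soluble is read as aggregation propensity. It is given as log2, with higher values meaning more stayed soluble.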
Turning to “HMHVVVIDKQGALSYQGKAITLLDLKNIVIDVPKETPFLIKADKDIHLQSFVEVLDLIKTAGFKKVSLQ”, the “soluble fraction (log2)” value was -0.459.
Under “HMIAANMTISQRIAAALAEYGVMSVKDIAQEVLGATDKKDTEKIRVTLTRDHGKRFRTYSDGTWSLKDWRP” stands 0.234.
The figure for “HMIAAVIAQVANTNERIILEKRYLSFKSWDEIAVEMRISPRWAYTLHERALKAVDQVLSKQNNE” is -2.54; for “HMIADDLKSLEGVDQDMLRDLAEAGINTRDDLAELAIDELIEITGVSTEEAEKVIMAARAHWFEEES” it is -1.74.
Under “HMIAKEDDGTAFLIDGKISSEEEFKTISKDDILEVFVYKETEIAQKKLDSINSINNTYYTSLIEILLKE” stands -0.854.
Consider “HMIAKIEGQISYVGNRFLIVDVSGVGYKLFVTNEAISLSKVEESIKLWVHTAVRENSIDLYG”, for which the “soluble fraction (log2)” value came out at 0.22.
Regarding “HMIANDDEIRKVVLEVIEEQPKAVEDVKNGRDRILDFLVGQVMKKTRGKANPSLASNLMKEEIEK”, the “soluble fraction (log2)” value was -0.11.
The figure for “HMIANNFDEFVEKVSEAERKALNMPAGQEMTQKLLEMKLAANPNLTPEEWQRTKSEFMTFLFAVFVRE” is -1.02; for “HMIAVLEEGSHFRAVNDVTGKPFGPEMVIKNGQVTAVGKTISTKPKNLLGKKEGTKFVISGKQYVIKDI” it is -0.103; for “HMIDAHTALLAKRLEAKGMLPLTDKSSAEEIYAEFGISKKAFKKALGALYKERLVRIGEDGVVWI” it is 0.0608.
Under “HMIDFIGLEAKLLSTISGEKMGNAEVIVDGNVMNIYVKSLDTSEIKFRENVLIIKQSDDKNYYLVAKP” stands -1.01; under “HMIDIDTILKKYKPGRRDELIPLMQEIQEVYGHLSEEAVVKIGTYVGLSTTKIYGLATFYDQFRF”, -0.874.
Under “HMIDLGKSRTWHSENGRAIEARVINISEEQQTVEMQRVDGLKFELSWNQLSKADQTLLAEAAKKTALVA” stands 0.276; under “HMIDLPDIDIDFAKRTGVLEHITHTPARLETGKQHNTGVYFTDIPRGVDGLATMDHKRAEQLGYFKLDML”, -0.172; under “HMIDNKIIRSLRQKRNMTLEELAKKANISVSYLSEIELGKKQPSLETINKLSQALNISREGLI”, 0.22.
On to “HMIDPHGSLTLDLRPRDARVEIIDSNKTYKPGVRLPMGEYAIAVSRRGYISETKRINIEYGDNRERVAL”, for which the “soluble fraction (log2)” value is -0.00328.
The figure for “HMIDSDENERIKELIKALISETLKSRGVSPEVISDIKERVDRLHNEELPRFAAELKELISRN” is -0.209.
The figure for “HMIDSEEVMETIQDLGYSPVFDVKEKFYKIKEEQIGKITLEVHIILRYGMVDLVWIVRENGELLLG” is -0.454; for “HMIDTLEYIISEESKGLRADQAITMVNGEFSRSLIQKWIKKGSILVNGKKIKPRDILNLNDKVTINPEEN” it is -0.633.
The figure for “HMIEDMQQWIRQIREIVSNRLDLTRNISDDEIREVISDIVMEQSRQQYMSLNEKKTLMEGVFNSMR” is -0.977.
Turning to “HMIEEIETQFLFDFGLIGHPNSAKIREKLSEALGIGYVNGKQLQKRLMMFGITKQQVVDVLTD”, the “soluble fraction (log2)” value is -2.3.
Under “HMIEMAGGYRKGDRVELHSLKGAAEHNGKQGTVVGPQGERVKVLLDDSDSKTLALKVTNLTKLESA” stands 0.0709.
The figure for “HMIEMGNRIRTLRKRRVGSQSEFAEKLDVSVVTISRIENGMTKIDAELLIKMSEVLQVPVNIILGM” is -1.7; for “HMIENPGQTFERIAGKITRTLRTGPLRIQQLDLLFSESGEQVMDVLRAMAENGEILIKDDTIQWNGHN” it is -0.387; for “HMIERKLRKKEHFIASVGEKVKIKNFATETYKGELISADNEKVVVETEFGKEEITYDNILAAATYFE” it is -1.01.
Under “HMIFNENLKSAREKKGLSQKEVAEAIGVAKSTYSLYESGNREPNVQTIKRIADVLNVSADVLLGL” stands 0.332; under “HMIGELVVEDLAAASEINVDTIRYYQRLGLLEPPRRRGRRAVYDHTHLERLAEIRRLAGAGFTLAQIGRLK”, -1.23; under “HMIGILSDREAEILALLDEGLTNKAIGRRLNLAEPTVKFHLKNLYAKLGVGRRQLAVNVAKGSGLLNSD”, -0.167.
In the case of “HMIGIRLKELVLKNQSAWVGLRVSELDISRKTMIVMIRRGDKMLIPNGSTILRSGDVLLLYTR”, the “soluble fraction (log2)” value is -0.354.
The figure for “HMIGITTANLNVRTGTDTNYTSIAILPKGTKVNILEENVKPGWYKIQFDEIYAFVSSKYIKIQS” is 0.243; for “HMIGMDMQELIGRYKGDPDEMGKIELAAMSMLKLSEDMSSDHVLQKSKLRQDGLWLLKYVQE” it is -1.03.
On to “HMIHEQSLHKIRNFIGSLPESLRTAFTLREQDGLSYEEIGKITNTPIGTVRSRIYRARESILDHINQE”, for which the “soluble fraction (log2)” value is -0.2.
Take “HMIHIGAQEALGEFQDEEGNLTASKKEVVAALVKKSKEVSFPTSYEYEVAARMAADEYNDAGQRMA”: the “soluble fraction (log2)” value is -0.079.
Under “HMIHKTDAINLGQRLLKSSLKEFDVSLKDIPNKTLMYILSEYKFNSLDDLYREIGLGNVIPKLVALRMAP” stands -0.436; under “HMIHTYVETRKVGNNDGLIRVDNKYYRVPQHLVGMKVQIQIDEATISVLQGGVMVATLDKTADVFNPQA”, -1.74; under “HMIIDPQIRTLWTSQIIDILKSNPKRSIRSILELYPSNKESWVLIILQELIGEEKIIRDLDYLYFNK”, -1.26.
On to “HMIIIMKMGADESQVQETIKRIKDLGFNTHLSKGENRTIIGVIGDVSSIDESDVERLRATPYIAEVVRVS”, for which the “soluble fraction (log2)” value came to 0.417.
Under “HMIIIPKKDYDVSQLDNLVSWLKDRGLEVHISRGENLTVIGLIGDTSKIDIDLIRSLDVVEEVKRIQ” stands -1.31.
Under “HMIIVMASSKKEDVAHVVHKIEELGYKAHVIVGVERTVVAAVGDERGKERLISLEALPHVEKVFPILK” stands -0.167; under “HMIKEVEYSQFLQMTDQGEVGKVEINEQENSILFTDKAEKNIYKTGMVEDAELSMRLYEAGIPFSGQI”, -2.29.
Under “HMIKEYEVLNYVTYEYDEIKKKLEEDFGIIVLMKEAYSDETPAGIIMDQDVEQGRIFKEGATNTITFTVS” stands -1.2; under “HMIKLSEAEWKVMKLLWEESPKTMMQITNLLKETTGWTKHTVMTFLKRMEEKKAIHYEEGGRAKLYYP”, -0.0902.
“HMIKVASVDGASDELAHEIREIMPLDFPVSYFDLDIKYLHKVLNDIPAVESAAIKVTVSGVLQIDISER”: the “soluble fraction (log2)” value was determined as 0.248.
The figure for “HMILALAISSEEDDARIYATYADRLREAYPASARVFEGMVDEEHEHRRRLIDLFQRRFGDTIPLVRREHV” is -0.836; for “HMILNPADEEKMNLINFELQQRGLEINDKEMQYIFTHHSRDLNSLLNLAEKLDEISHQEKKSISINLIKKI” it is -0.158; for “HMILNWSEYTRSEIIELARDLSPDKYMIIDDINTYSKMKLLPSQAFIAEMFGSLRQFQKEAWGRE” it is -1.27.
Take “HMILPKFNQLLGQMGENIKLARKRRKLTAVQVSERAGIARSTLYLIEKGDASVSLGAYFNVLRVLG”: the “soluble fraction (log2)” value was -0.214.
The figure for “HMIMEVDYGTFMKMTEENAIGRVQMDSTEIIFTDKENTQVYSTGIMYDPDLTQRLYDAGAVFA” is -1.58.
The figure for “HMIMGTIEKRGPFSFRIGVQVRLPDGSWEWIRDTIHVSPDLSARAARKQAEMALARLEADVYEGKRKPD” is -0.0141.
As for “HMIMLDRILKIMDYNKFTPSEFADVLEIDRSRLSHILNGRNKPSLEIVMKILEKFPEISSDWLLFGSGNML”, the “soluble fraction (log2)” value is -2.01.
Take “HMIMNEYEELRDRYLIGQIWKIGDLIEAKGIEGKIIQRGTNYVTFNDNNGKVHKAWLHEIKYEQ”: the “soluble fraction (log2)” value was -0.559.
Consider “HMIMNKEIPVVADEFVEKEFGTGAVKLTPAHDPNDYESGERHGLEVVEVFDETGKMNDLVPEYEG”, for which the “soluble fraction (log2)” value was -0.0198.
As to “HMIMTGSIQEKNGKYYTVLNIKDKNGKYKKKWQTTGLPVKGNKRKAEQILRRRIAEYEANQL”, the “soluble fraction (log2)” value is at least 0.43.
Under “HMIMTHSALLEKDGFDIVKVHFERPNDDGFDFLDMTLPGEIVYKSFGFSEDEILKLKRYAKNNSSLIWDF” stands -1.87; under “HMINEDMTQSDRMELWGRLIDVVEDWLAEKGITEEDIPNEEREGVEDAAIIFGDDYDYLADRFSEVIGISR”, -1.99.
The figure for “HMINFKVKNVQDVGSRLDKFLVTNIPEFSRSKIQKHIKNGKVMVNGLLKKTGYKLEINDEINILNN” is 0.198; for “HMINLDYILELIFEKNNKTKDKTALIEEIRGVIRASVGNRAKESLIVDFINDTDLDTITDKASIIESFFEY” it is -2.64.
Under “HMINLTKVGNFISIIKLQQIWTIDELLKKVDINYDELLYLLTILSDIYSKNGEYFFDFDIDAENNKILFNN” stands -0.3; under “HMINVGYKFKQIRENAGLTLKQVSAMSGLSVSFISQIERGVVDPSWSSLKKISAALNIKLKDLF”, -0.449.
As for “HMIPDLPAIGENLYRERKRQQLSMAELAAASGISKAMLSQIEADKVNPTIATLWKIAHALHVDLESLISGG”, the “soluble fraction (log2)” value was -0.0815.
Under “HMIPDPEKVMFDGGIRLLTQAGITEGKARSILGKWKRDHETERIIAALGAAQREGAIEPVSFIERVLRN” stands -0.475; under “HMIPKIIDITDLNEEVREVIEEYMKRKRVEKYHIYQDSKGQIFIISGSAIIRYDSKLNNLYYL”, -0.395.
The figure for “HMIPLKTEAIPVSYGDGAAIIRSLAVAFPSRTFHWDAQTRRIIGQALDEEWQVIRSLVWQLDIP” is -1.06.
The figure for “HMIPLSDEETILLKLLEATETHLDALIRGSQLSAAKVSVVLMGMEMKRLVKRLPGQMYQRWD” is -1.55.
Consider “HMIPRNLEDLVRENQIGLVILKIVEIIGEDNIRDLDPETIYFINRILNELNLKKIRNNILSEALPPR”, for which the “soluble fraction (log2)” value was -0.8.
On to “HMIPSEQYNTALTEIGLSTRAHNSLRRAGIMTLGQLIEKTRDGLPPLPGFGDKSQVEVQDLLTGLGYPI”, for which the “soluble fraction (log2)” value is -1.03.
For “HMIPSGISEHPISKLPLSMSIIHRLELAGIKTIGDITGENFSRLQEIPRIGKVTAKRILEAIQSYSEQLP”, the “soluble fraction (log2)” value was -0.273.
Under “HMIPYQDPLPKGAEESLLSKYPGFEITGVHFVNDTNFIGYKVRLERGEDREEISLDVNGKFL” stands -0.169; under “HMIQADFIPQVEQRLADRGLSMSGDVMAAFLDRAGYGLRHVSNEIEKLSLYLGDRKKVTVEDVVQMVAPVR”, -0.415.
